# Test results taken from publication PMC11298625, “MdVQ17 negatively regulates apple resistance to Glomerella leaf spot by promoting MdWRKY17-mediated salicylic acid degradation and pectin lyase activity”.
# B1: MdPL-like-P3 probe (dsDNA)
# DNA 1: AGTTGACCATTGACCGTTGACTGAGTCAACAGTCAAGGTCAACT
# DNA 2: AGTTGACCTTGACTGTTGACTCAGTCAACGGTCAATGGTCAACT
# B2: MdPL-like-P1 probe (dsDNA)
# DNA 1: AGGAGTACCTTTGGTCAAACTATATTCAAA
# DNA 2: TTTGAATATAGTTTGACCAAAGGTACTCCT
# B3: MdDMR6 probe (dsDNA)
# DNA 1: ATATTGTTTTCTGCATTTTTGACTTAATTTTTATAAATTAA
# DNA 2: TTAATTTATAAAAATTAAGTCAAAAATGCAGAAAACAATAT
# B4: MdPL-like-P2 probe (dsDNA)
# DNA 1: AAGTCAACTAAAAAAGTCAACGTCTGACCGTTGACTGGTCAAAG
# DNA 2: CTTTGACCAGTCAACGGTCAGACGTTGACTTTTTTAGTTGACTT
# Molecular target: MdWRKY17 (Malus x domestica, UniProt A0A9E6GT21 1-512)
# Sequence (A0A9E6GT21 entry or part of it): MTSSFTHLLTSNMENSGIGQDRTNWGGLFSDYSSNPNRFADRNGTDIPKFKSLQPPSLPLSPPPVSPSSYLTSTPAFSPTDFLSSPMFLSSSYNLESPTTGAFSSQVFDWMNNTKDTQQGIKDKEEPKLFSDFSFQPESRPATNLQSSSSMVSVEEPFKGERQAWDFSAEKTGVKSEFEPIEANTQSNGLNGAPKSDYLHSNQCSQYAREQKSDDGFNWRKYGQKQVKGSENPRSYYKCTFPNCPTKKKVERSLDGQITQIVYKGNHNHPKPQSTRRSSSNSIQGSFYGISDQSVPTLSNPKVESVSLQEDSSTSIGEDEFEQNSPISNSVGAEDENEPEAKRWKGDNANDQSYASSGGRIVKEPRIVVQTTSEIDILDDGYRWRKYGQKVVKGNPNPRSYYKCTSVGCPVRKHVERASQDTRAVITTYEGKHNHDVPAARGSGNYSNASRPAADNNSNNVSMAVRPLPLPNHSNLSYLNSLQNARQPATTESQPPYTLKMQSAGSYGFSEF
# Test: EMSA; Chemiluminescent EMSA Kit (Beyotime); buffer, salt, pH and temperature not stated
# Conditions: protein: recombinant; tags: His (pET32a); label: biotin; blunt
row,Binder,binding result
1,B1,binds
2,B2,binds
3,B3,binds
4,B4,binds
